In publication PMC5993284, “Peptide inhibitors of the anaphase promoting-complex that cause sensitivity to microtubule poison” (PLoS ONE, 2018):
Entries after “also recorded” stand apart in the source; their conditions may differ.

B1: C-box2: C-box2 (Cdc20 130–196) containing the region between the C-box and the Mad2-binding motif (peptide, UniProt P26309 130-196, looked up, fragment)
chain: TTSREVDEQFTVAADRYIPILQGASQNKVDPETLHEALPPPNASPISHLRAQTKIVFKQNVAEACGL
B2: Cdc20-106 (P209Q): spindle checkpoint by-pass mutant allele of Cdc20, P209Q (protein)
chain: MPESSRDKGNAAISGNRSVLSIASPTKLNILSSDWSRNQGKVSKNSLKRSSSLNIRNSKRPSLQASANSIYSRPKITIGAPPLIRRDSSFFKDEFDAKKDKATFSAYSSRSYPTIGSESVVSQTSLSQPTTSREVDEQFTVAADRYIPILQGASQNKVDPETLHEALPPPNASPISHLRAQTKIVFKQNVAEACGLDMNKRILQYMPEQPKCSSLRQKSYIMKKRTHYSYQQEQKIPDLIKLRKINTNPERILDAPGFQDDFYLNLLSWSKKNVLAIALDTALYLWNATTGDVSLLTDFENTTICSVTWSDDDCHISIGKEDGNTEIWDVETMSLIRTMRSGLGVRIGSLSWLDTLIATGSRSGEIQINDVRIKQHIVSTWAEHTGEVCGLSYKSDGLQLASGGNDNTVMIWDTRTSLPQFSKKTHTAAVKALSWCPYSPNILASGGGQTDKHIHFWNSITGARVGSINTGSQVSSLHWGQSHTSTNGGMMNKEIVATGGNPENAISVYNYETKFKVAEVVHAHEARICCSQLSPDGTTLATVGGDENLKFYKIFDPRCTGRSREDGLMDGMLGLIGKEGCRTNDKENRSKNSSEIHTRRPSSTSQYLIR

Legend:
APC/C [1] = assay: Biotinylated peptide pull-down of purified APC/C, Western blot; assay type: binding, Saccharomyces cerevisiae; conditions: 20 μM biotinylated peptide, purified yeast APC/C, 1 h at 4 °C, streptavidin/Avidin beads, n = 3
Protocol: For APC/C purification, the APC/C which contain Cdc16-TAP-tag was isolated from 2 mL arrested yeast lysate by 120 μL IgG sepharose 6 Fast Flow beads (GE Healthcare Life Sciences) and incubate for 2 h at 4 °C on a rotating wheel. Beads were collected washed with 5 mL of APC/C wash buffer (200 mM Hepes pH8.0, 150 mM NaCl, 10% glycerol). Beads were resuspended in 150 μL of APC/C wash buffer contain 17.6 units of AcTEV protease (Invitrogen, Carlsbad, CA) at 4°C for 3 h with pipetting every 20 minutes. The purified APC/C was collected in the flow-through.
For APC/C binding assays, 20 μM biotinylated peptides or 20 μM peptides only as a negative control were incubated with purified APC/C and 100 μL APC/C wash buffer which contains phosphatase inhibitors (200 mM Hepes pH 8.0, 150 mM NaCl, 10% glycerol, 10 mM NaF, 1 mM NaVO4, 5 mM Na-pyrophosphate, 10 mM 2-glycerol phosphate) for 1 h at 4 °C. The mixtures were applied to 120 μL streptavidin beads (Dynabeads MyOne Streptavidin T1, Invitrogen) for 30 min at 4 °C with gentle pipetting every 10 min. Beads were washed with 1 mL of PBST buffer (Phosphate buffer saline and 0.1% Tween 20) three times SDS-PAGE protein sample was added directly. For APC/C binding competition experiments, the biotinylated peptide and 10-fold excess non-biotinylated peptides were added to purified APC/C at same time.
Free D-biotin in 10% DMSO was used for the control binding assays. For pre-coating APC/C with biotin, a modified APC/C purification was performed. 2 mL yeast lysate was incubated with 120 μL IgG Sepharose beads and additional 20.4 μM free biotin or non-biotin solvent as a positive control was added and samples were incubated for 2 h at 4 °C on a rotating wheel. Purified pre-coated APC/C was then removed from the IgG Sepharose following the standard purification procedure. 20 μM biotinylated peptides or 20 μM peptides as a negative control were incubated with pre-coated APC/C and 100 μL APC/C wash buffer which contain phosphatase inhibitors for 1 h at 4 °C. In addition, 20 μM biotinylated peptide was added and incubated with pre-coated APC/C in a non-biotin containing solvent as positive control. Pre-coated APC/C binding procedures were same as above. For pre-coating streptavidin beads with biotin, streptavidin beads were washed in the presence of 10.2 nmol/mL D-biotin in PBST buffer or non-biotin solvent as a positive control before use. Pre-coated streptavidin beads were incubated with purified APC/C-peptide complexes with an extra […] biotin for 30 minutes with gentle pipetting every 10 min at 4 °C.
Proteins were separated in SDS-PAGE gels and then were transferred to PVDF membrane. Blocking was performed by incubating samples in 20 mL PBST with 5% milk at 4 °C. Rabbit anti-tap (Thermo, CAB1001) was used as primary antibodies at a 1:1000 dilution and incubated for 2 hours at RT. Anti-rabbit HRP (Jackson, USA) was then used as secondary antibody at 1:5000 dilution and incubate for 1 hr at RT. Chemiluminescence signals were detected using an ImageQuant LAS 4000 (GE Healthcare Bio-Sciences, USA). For cell cycle timing Western blots anti-MYC and anti-Actin antibodies were employed (ABCAM, UK).

APC/C^Cdh1 = APC/C^Cdh1 enzyme assay (ubiquitination of 35S-Pds1); assay type: biochemical, Saccharomyces cerevisiae; conditions: 220 μM peptide; 35S-Pds1 substrate; time course 0-60 minutes; vs buffer; n = 3
Protocol: Full-length, radio-labeled protein purifications were preformed as previously described. ^35S-Pds1 was prepared in a 500 μL IVT/T (In Vitro Transcription/Translation) reaction (Promega, USA), which contained 400 μL rabbit reticulocyte lysate, 20 μL of L-^35S-methionine (PerkinElmer, USA), 10 μg of plasmid DNA, and the remaining volume as nuclease-free ddH2O as recommended by the manufacturer. The reaction mixture was incubated for 2 hours at room temperature and gently mixed every 30 minutes. The reaction was added to pre-equilibrated IgG Sepharose beads (GE Healthcare, USA) in Bio-spin disposable chromatography columns (Bio-Rad, USA) for binding for 2 hours at room temperature. To ensure efficient binding, the beads were re-suspended several times every 30 minutes. After binding, the beads were washed with 5 mL wash buffer, containing 200 mM 4-(2-hydroxyethyl)-1-piperazineethanesulfonic acid (HEPES) at pH 8.0, 150 mM NaCl, 10% (v/v) glycerol, and 1 mM dithiothreitol (DTT). The ^35S-Pds1 was cleaved from the beads using TEV (Tobacco Etch Virus) protease in 1x TEV buffer (Invitrogen, USA) for 2 hours at room temperature, and the mixture was re-suspended several times every 30 minutes to promote efficient cleavage. The elution was collected and concentrated by employing an Amicon Ultra filter column (Millipore, Ireland). The concentrated ^35S-Pds1 was collected in a new tube, and stored at -20 °C.
(§1) The production of Cdc20 or Cdh1 was prepared by IVT/T reactions, where 16 μL of rabbit reticulocyte lysate, 20 μM L-methionine, 0.4 μg of plasmid DNA, and a volume of nuclease-free ddH2O for a total volume of 20 μL. This freshly synthesized Cdc20 or Cdh1 protein was used directly in all APC/C assays after a 1-hour synthesis reaction at room temperature. The APC/C was purified for enzyme assays from 1 mL of TAP-tagged Cdc16 yeast extract (SCSY51) where extract was mixed with 50 μL 50:50 slurry magnetic beads (Invitrogen, Norway) for 2 hours at 4 °C. After incubation, the beads were washed with 3 mL APC/C wash buffer (200 mM of HEPES, 150 mM of NaCl and 10% (v/v) of glycerol). APC/C bound to IgG magnetic beads was used directly in the enzyme assays.
APC/C assays were performed by adding the reaction contents in following order: 4.3 μL of QAH buffer, 20 μL of rabbit reticulocyte lysate containing Cdc20 or Cdh1 with or without an additional volume of recombinant checkpoint protein(s) or inhibitor peptides, 2.4 μL ubiquitin aldehyde (Boston Biochem, USA), APC/C, 16 μL pre-charged E1/E2/ATP/ubiquitin mix, and 13.3 μL of ^35S-Pds1 with QAH buffer (20 mM HEPES at pH 8.0, 100 mM NaCl, and 1 mM MgCl2). […]

APC/C^Cdc20 = molecular target: T1, APC/C^Cdc20 (Saccharomyces cerevisiae, UniProt P16522+P53886); assay: biochemical; assay type: biochemical; conditions: 220 μM peptide; 35S-Pds1 substrate; time course 0-60 minutes; vs buffer only; n = 3
T1 construct: constructed within full-length Cdc20 by site-directed mutagenesis for analysis in vitro in the APC/C^Cdc20 assay; The APC/C was purified for enzyme assays from 1 mL of TAP-tagged Cdc16 yeast extract (SCSY51); made in house; host or cells: Cdc20: in vitro transcription/translation in rabbit reticulocyte lysate, used unpurified; APC/C: S. cerevisiae strain SCSY51 (Cdc16-TAP) extract, captured on IgG magnetic beads
Outline: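 Bead-bound TAP-Cdc16 yeast APC/C was mixed with IVT-made Cdc20 or Cdh1, pre-incubated 1 h at rt with checkpoint proteins or inhibitor peptides, plus pre-charged E1/E2/ATP/ubiquitin and ^35S-Pds1 in 20 mM HEPES pH 8.0, 100 mM NaCl, 1 mM MgCl2. Time points were stopped in SDS buffer and resolved by SDS-PAGE.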

APC/C [2] = assay: APC/C activity promoted by mutant Cdc20 alleles in the presence of Mad2 (Pds1 remaining); assay type: biochemical, Saccharomyces cerevisiae; conditions: 5.0 μM Mad2, n = 3
Protocol: as §1
APC/C assays were performed by adding the reaction contents in following order: 4.3 μL of QAH buffer, 20 μL of rabbit reticulocyte lysate containing Cdc20 or Cdh1 with or without an additional volume of recombinant checkpoint protein(s) or inhibitor peptides, 2.4 μL ubiquitin aldehyde (Boston Biochem, USA), APC/C, 16 μL pre-charged E1/E2/ATP/ubiquitin mix, and 13.3 μL of ^35S-Pds1 with QAH buffer (20 mM HEPES at pH 8.0, 100 mM NaCl, and 1 mM MgCl2). The E1/E2/ATP/ubiquitin mix were pre-charged by mixing 1 μL of E1 (Boston Biochem, USA), 1 μL of E2 (Boston Biochem, USA), 14.4 μL of ATP, 14.4 μL of […] (Boston Biochem, USA), and 17.2 μL of QAH buffer and incubated for 15 minutes at room temperature. Approximately 15 μL of samples were taken out at each time point, and the reaction was stopped by the addition of 2x protein sample buffer (125 mM Tris-HCl pH 6.8, 4% SDS, 20% glycerol, and 0.002% bromophenol blue, with 10% (final v/v) 2-mercaptoethanol added in fresh directly before use).
For inhibitor titration and time-course experiments, recombinant Bub3, Mad2, Mad3, and the Mad3-Bub3 complex were expressed and purified as previously described. Inhibitory peptides were synthesized by standard procedures and purified to 99% purity by HPLC (Kelowna International Scientific Inc., Taiwan). For inhibition of APC/C the co-factor Cdc20 or Cdh1 was made fresh by IVT/T, and pure recombinant checkpoint proteins or inhibitor peptides were added to the IVT/T mixture and incubated for an additional hour at room temperature. In titrations, a dilution series of the checkpoint protein(s) were made before incubation with the Cdc20 co-factor. […]
Our first goal was to measure the ability of the mutant alleles to promote APC/C activity in vitro. To ensure any observed change in APC/C activity reflected a change in function, and not a change in the amount of Cdc20 co-factor protein produced by IVT/T, the amounts of Cdc20 protein produced by IVT/T was measured, and no significant difference was observed (S4 Table). […]

Molecule	binding to APC/C (in words) (APC/C [1])	inhibition of APC/C^Cdh1 activity (in words) (APC/C^Cdh1)	inhibition of APC/C^Cdc20 activity (in words) (APC/C^Cdc20)	ability of mutant Cdc20 to promote APC/C activity in the presence of Mad2 (in words) (APC/C [2])	ability of mutant Cdc20 to promote APC/C activity in the presence of Mad2 (in words) (APC/C [2]; listed as Cdc20-106)
hp31: 39 amino acid residue human peptide derived from human p31^comet amino acid residues 219–258 (RNCGEDWFRPKLNYRVPSRGHKLTVTLSCGRPSIRTTAWE; UniProt Q15013 219-258, looked up, fragment)	bound to budding yeast APC/C directly; also recorded: can pull-down budding yeast APC/C at 20 μM peptide	inhibited both budding yeast APC/C^Cdc20 (Fig 13B) and APC/C^Cdh1; also recorded: inhibits yeast APC/C^Cdh1	inhibited both budding yeast APC/C^Cdc20; also recorded: inhibits yeast APC/C^Cdc20	–	–
B1	–	also inhibited APC/C^Cdh1 activity; also recorded: A significant level of APC/C^Cdh1 inhibition was observed	observed to inhibit APC/C^Cdc20 activity; also recorded: A significant level of APC/C^Cdc20 inhibition was observed only in the presence of the C-box2 peptide	–	–
B2	–	–	–	consistently displayed APC activity in the presence of Mad2	promote APC/C activity at the same level as control reactions even in the presence of 5.0 μM Mad2
